Experimental data taken from the RNAGym collection of RNA variant scans (doi:10.7554/elife.90254).

B1: LINE1-full (parent)
chain: UACGUAGGUGGUUUUCCCCUGAUAGUGCUAAGGGGGCCUGGAAGUUUGGACUGGGCAGAGCUCAACACAGCGUGGCAAAGUGGCUGUGGCUAGACUGCCUCUCUGGAUUCCUCGUCACUCAGCAGGGCAUCUCUGAGAGAAAUGCC

Variants of: B1
Assay: self-cleavage, relative activity (ratio to wild type); higher = more cleavage; in vitro, sequencing; the parent is a self-cleaving ribozyme
G44A A121G gave a self-cleavage of 1.21.
Variant G44A U52C has a self-cleavage of 1.32.
Work on U14G A117U yielded a self-cleavage of 0.78.
In the case of U1C A57G, the self-cleavage is reported as 0.56.
For C16U A92U, the self-cleavage was 0.58.
For U47C U102C, the self-cleavage was 1.9.
Work on A77U U102C yielded a self-cleavage of 1.24.
A124U A140U showed a self-cleavage of 1.09.
For U15G U96C, the self-cleavage was 0.
Work on G21A A67G yielded a self-cleavage of 0.48.
C16U A117G gave a self-cleavage of 0.57.
Work on C3U U29A yielded a self-cleavage of 1.07.
U14A U100A gave a self-cleavage of 0.28.
In the case of G41A A121G, the self-cleavage is reported as 1.15.
Work on A59G A121G yielded a self-cleavage of 0.23.
U73C A117U showed a self-cleavage of 2.34.
For A67U U132A, the self-cleavage was 0.11.
Variant A22C U143A has a self-cleavage of 1.53.
Work on U109C A140G yielded a self-cleavage of 0.48.
For A22U C38U, the self-cleavage was 1.18.
A22U U39C gave a self-cleavage of 1.2.
In the case of U39A G114A, the self-cleavage is reported as 1.19.
Variant A57U U100A has a self-cleavage of 0.03.
In the case of U14G A69G, the self-cleavage is reported as 0.42.
In the case of U73A C120U, the self-cleavage is reported as 1.79.
For A65U U102A, the self-cleavage was 0.17.
Work on A30U A79G yielded a self-cleavage of 0.91.
In the case of U20A A117G, the self-cleavage is reported as 1.94.
With G80C C98U the self-cleavage was 0.26.
C37U U109A showed a self-cleavage of 1.24.
A64G U109C gave a self-cleavage of 0.2.
G33A U109C gave a self-cleavage of 1.05.
For A142G U143G, the self-cleavage was 0.16.
Work on G58A A79G yielded a self-cleavage of 0.06.
G86A gave a self-cleavage of 0.08.
A2U A64G gave a self-cleavage of 0.23.
For U115C A129U, the self-cleavage was 2.01.
With U13G G34U the self-cleavage was 1.2.
A69G A92G gave a self-cleavage of 0.23.
U96G U112C showed a self-cleavage of 0.05.
U87G A129G gave a self-cleavage of 0.27.
In the case of A141G U143C, the self-cleavage is reported as 1.31.
In the case of A69U U119C, the self-cleavage is reported as 0.06.
In the case of U52A G54U, the self-cleavage is reported as 1.84.
For U15A C84U, the self-cleavage was 0.08.
With A69U U130G the self-cleavage was 0.09.
For G97A U104A, the self-cleavage was 0.06.
For G89A A121G, the self-cleavage was 0.09.
With U45C A78G the self-cleavage was 1.31.
For A24G C51U, the self-cleavage was 1.68.
G33U A43U showed a self-cleavage of 0.54.
A57G A124C gave a self-cleavage of 0.91.
U96A U134C gave a self-cleavage of 0.08.
In the case of A94G C131U, the self-cleavage is reported as 0.17.
With U46C A129U the self-cleavage was 1.27.
Variant U26C G44A has a self-cleavage of 1.17.
With A42U U81A the self-cleavage was 1.39.
With G35A U39C the self-cleavage was 0.53.
In the case of C3U U5C, the self-cleavage is reported as 1.16.
For U102C U119C, the self-cleavage was 1.69.
In the case of A42G A141G, the self-cleavage is reported as 1.38.
Variant A64C U143C has a self-cleavage of 0.35.
A59G A141G gave a self-cleavage of 0.08.
C51U U104A gave a self-cleavage of 1.02.
For C103U A136G, the self-cleavage was 1.39.
With U62A A138U the self-cleavage was 0.06.
Work on G36A U108C yielded a self-cleavage of 1.37.
For U13A C103A, the self-cleavage was 1.04.
In the case of G27A G53U, the self-cleavage is reported as 1.14.
G35A U115A showed a self-cleavage of 1.17.
U14C U15C gave a self-cleavage of 1.27.
G4C U96A showed a self-cleavage of 0.12.
Work on C56A U134C yielded a self-cleavage of 0.07.
For G11A A64C, the self-cleavage was 0.1.
With A107G A141C the self-cleavage was 1.51.
Variant C113U has a self-cleavage of 0.98.
For A92U C120U, the self-cleavage was 0.78.
In the case of U20C G126U, the self-cleavage is reported as 1.92.
U9G A107G gave a self-cleavage of 1.13.
A6U U100C gave a self-cleavage of 0.76.
With U5C U132C the self-cleavage was 0.86.
Work on A22G A43G yielded a self-cleavage of 1.02.
Variant U5C U109C has a self-cleavage of 0.91.
For U45C A124G, the self-cleavage was 1.18.
Variant U109C G137A has a self-cleavage of 1.45.
For C90U U115C, the self-cleavage was 0.06.
For G114A A142G, the self-cleavage was 1.31.
Variant G49A U52C has a self-cleavage of 1.35.
For U81C A129G, the self-cleavage was 1.56.
Variant U1A A107G has a self-cleavage of 1.67.
For A43G U87G, the self-cleavage was 0.16.
G49A A124G showed a self-cleavage of 0.55.
U39A U132C showed a self-cleavage of 1.38.
U87C A94U gave a self-cleavage of 0.05.
A30U U143G gave a self-cleavage of 1.38.
Work on G55A C131G yielded a self-cleavage of 0.35.
In the case of A67U A78G, the self-cleavage is reported as 0.08.
A64G A92G showed a self-cleavage of 0.14.
U87A U115G showed a self-cleavage of 0.13.
For G34U A65G, the self-cleavage was 0.02.
For G27A A57U, the self-cleavage was 0.04.
Work on A30U A64U yielded a self-cleavage of 0.51.
U23C U91C gave a self-cleavage of 1.18.
G33U U87A showed a self-cleavage of 0.03.
A2C G4U showed a self-cleavage of 1.34.
A50G C95A gave a self-cleavage of 0.05.
Work on U87A U100C yielded a self-cleavage of 0.09.
Work on U13G U15C yielded a self-cleavage of 1.47.
Work on U85A U100A yielded a self-cleavage of 0.05.
Work on A24G A77U yielded a self-cleavage of 1.04.
U9C G33A showed a self-cleavage of 1.01.
In the case of C28A A64G, the self-cleavage is reported as 0.28.
G33U C103U showed a self-cleavage of 1.15.
U26A U96A gave a self-cleavage of 0.09.
U1A A117U showed a self-cleavage of 1.48.
For G33A U115C, the self-cleavage was 1.48.
A94U A140G showed a self-cleavage of 0.23.
Work on G11A A43G yielded a self-cleavage of 1.42.
For C63U U132A, the self-cleavage was 0.46.
In the case of G11A U26C, the self-cleavage is reported as 1.4.
Work on C19U G89A yielded a self-cleavage of 0.11.
Work on A6C U119A yielded a self-cleavage of 1.36.
Work on A79G G135A yielded a self-cleavage of 1.38.
For U5C C71U, the self-cleavage was 0.68.
Variant A57G A77U has a self-cleavage of 0.58.
In the case of A31G A64G, the self-cleavage is reported as 0.31.
For U13G A138G, the self-cleavage was 1.45.
With A6C A31U the self-cleavage was 0.
In the case of A6G U14A, the self-cleavage is reported as 0.95.
Work on U47C U81A yielded a self-cleavage of 2.45.
Variant G53U A65U has a self-cleavage of 0.27.
U9C C90U showed a self-cleavage of 0.09.
A64U U104A gave a self-cleavage of 0.29.
For U73A G93U, the self-cleavage was 0.03.
U12C U23A gave a self-cleavage of 1.08.
G74A A117C gave a self-cleavage of 1.63.
With G60A A64G the self-cleavage was 0.04.
With U5C C146U the self-cleavage was 0.69.
In the case of A57C G127A, the self-cleavage is reported as 0.03.
Variant U96A A141G has a self-cleavage of 0.08.
In the case of U20A U52C, the self-cleavage is reported as 1.77.
In the case of U46G A117U, the self-cleavage is reported as 2.76.
Work on A57G G86A yielded a self-cleavage of 0.05.
U15A C95U showed a self-cleavage of 0.41.
Work on A67G A79G yielded a self-cleavage of 0.5.
Variant C63U U73G has a self-cleavage of 0.21.
A78G G93A gave a self-cleavage of 0.04.
With U14C G70A the self-cleavage was 0.26.
In the case of A24G U134C, the self-cleavage is reported as 1.26.
Work on U12C A124U yielded a self-cleavage of 1.29.
With G49A U112C the self-cleavage was 1.45.
Variant C17A U115C has a self-cleavage of 0.71.
In the case of U14A A59G, the self-cleavage is reported as 0.14.
Variant G58A U132C has a self-cleavage of 0.05.
Variant A77G G97U has a self-cleavage of 0.08.
Work on U13C U87A yielded a self-cleavage of 0.1.
U100A U130C showed a self-cleavage of 2.57.
Work on G4A U20G yielded a self-cleavage of 0.62.
For A2U U132C, the self-cleavage was 1.09.
Variant G74U A142G has a self-cleavage of 1.63.
Work on C90G A142G yielded a self-cleavage of 0.05.
U73C U130C showed a self-cleavage of 1.81.
For U13G A59G, the self-cleavage was 0.12.
Variant U115A A124G has a self-cleavage of 0.93.
U15C U132C gave a self-cleavage of 1.47.
U12G U15C gave a self-cleavage of 0.9.
U134A A138U showed a self-cleavage of 1.72.
